Publication PMC5945783, “Relationship Between Homodimeric Glucocorticoid Receptor and Transcriptional Regulation Assessed via an In Vitro Fluorescence Correlation Spectroscopy-Microwell System” (Scientific Reports, 2018)

Experiments:
[1] = molecular target: the molecule itself; test: fluorescence correlation spectroscopy (FCS), particle brightness (counts per particle) analysis; FCS-microwell system: single transfected U2OS cell lysed in a 113 pL PDMS microwell; absence of Dex; lysis buffer with 0.1% SDS and Benzonase; bimolecular reaction model fitted in the 0-50 nM range; dimer to monomers
[2] = molecular target: the molecule itself; test: fluorescence correlation spectroscopy (FCS), particle brightness (counts per particle) analysis; FCS-microwell system: single transfected U2OS cell, 500 nM Dex at 37 °C for 20 min, then lysed in a 113 pL PDMS microwell; lysis buffer with 0.1% SDS and Benzonase; bimolecular reaction model fitted in the 0-50 nM range; dimer to monomers

Protein	Kd [1]	Kd [2]
EGFP-fused human glucocorticoid receptor α C421G mutant (natural protein, UniProt P04150 1-777, looked up, glucocorticoid receptor α, human, with C421G; also called EGFP-GR/C421G; GR/C421G; source: U2OS, transfected (ViaFect), in single-cell lysate) MDSKESLTPGREENPSSVLAQERGDVMDFYKTLRGGATVKVSASSPSLAVASQSDSKQRRLLVDFPKGSVSNAQQPDLSKAVSLSMGLYMGETETKVMGNDLGFPQQGQISLSSGETDLKLLEESIANLNRSTSVPENPKSSASTAVSAAPTEKEFPKTHSDVSSEQQHLKGQTGTNGGNVKLYTTDQSTFDILQDLEFSSGSPGKETNESPWRSDLLIDENCLLSPLAGEDDSFLLEGNSNEDCKPLILPDTKPKIKDNGDLVLSSPSNVTLPQVKTEKEDFIELCTPGVIKQEKLGTVYCQASFPGANIIGNKMSAISVHGVSTSGGQMYHYDMNTASLSQQQDQKPIFNVIPPIPVGSENWNRCQGSGDDNLTSLGTLNFPGRTVFSNGYSSPSMRPDVSSPPSSSSTATTGPPPKLGLVCSDEASGCHYGVLTCGSCKVFFKRAVEGQHNYLCAGRNDCIIDKIRRKNCPACRYRKCLQAGMNLEARKTKKKIKGIQQATTGVSQETSENPGNKTIVPATLPQLTPTLVSLLEVIEPEVLYAGYDSSVPDSTWRIMTTLNMLGGRQVIAAVKWAKAIPGFRNLHLDDQMTLLQYSWMFLMAFALGWRSYRQSSANLLCFAPDLIINEQRMTLPCMYDQCKHMLYVSSELHRLQVSYEEYLCMKTLLLLSSVPKDGLKSQELFDEIRMTYIKELGKAIVKREGNSSQNWQRFYQLTKLLDSMHEVVENLLNYCFQTFLDKTMSIEFPEMLAEIITNQIPKYSNGNIKKLLFHQK	0.4 µM	0.22 µM
EGFP-fused human glucocorticoid receptor α A458T mutant (natural protein, UniProt P04150 1-777, looked up, glucocorticoid receptor α, human, with A458T; also called EGFP-GR/A458T; GR/A458T; source: U2OS, transfected (ViaFect), in single-cell lysate) MDSKESLTPGREENPSSVLAQERGDVMDFYKTLRGGATVKVSASSPSLAVASQSDSKQRRLLVDFPKGSVSNAQQPDLSKAVSLSMGLYMGETETKVMGNDLGFPQQGQISLSSGETDLKLLEESIANLNRSTSVPENPKSSASTAVSAAPTEKEFPKTHSDVSSEQQHLKGQTGTNGGNVKLYTTDQSTFDILQDLEFSSGSPGKETNESPWRSDLLIDENCLLSPLAGEDDSFLLEGNSNEDCKPLILPDTKPKIKDNGDLVLSSPSNVTLPQVKTEKEDFIELCTPGVIKQEKLGTVYCQASFPGANIIGNKMSAISVHGVSTSGGQMYHYDMNTASLSQQQDQKPIFNVIPPIPVGSENWNRCQGSGDDNLTSLGTLNFPGRTVFSNGYSSPSMRPDVSSPPSSSSTATTGPPPKLCLVCSDEASGCHYGVLTCGSCKVFFKRAVEGQHNYLCTGRNDCIIDKIRRKNCPACRYRKCLQAGMNLEARKTKKKIKGIQQATTGVSQETSENPGNKTIVPATLPQLTPTLVSLLEVIEPEVLYAGYDSSVPDSTWRIMTTLNMLGGRQVIAAVKWAKAIPGFRNLHLDDQMTLLQYSWMFLMAFALGWRSYRQSSANLLCFAPDLIINEQRMTLPCMYDQCKHMLYVSSELHRLQVSYEEYLCMKTLLLLSSVPKDGLKSQELFDEIRMTYIKELGKAIVKREGNSSQNWQRFYQLTKLLDSMHEVVENLLNYCFQTFLDKTMSIEFPEMLAEIITNQIPKYSNGNIKKLLFHQK	0.39 µM	0.37 µM
